Assay results reported in the supplement of paper PMC11865577.

How the values were obtained:
Experiment in all cases: pull-down binding Z-score (relative to library population); higher = stronger binding
Settings in all cases: RNA library: Library-2
[1] = tested on: TO-3-N3 (biotin conjugate)
How it was run: (§1)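 Biotin-conjugated small molecule (100 pmol) on streptavidin beads was incubated with 1 μg of heat-folded Cy5- or Cy3-end-labelled RNA library in phosphate/NaCl/KCl buffer at 25 °C for 60 min. Following three washes, RNA was eluted with hot SDS and hybridised at 55.5 °C for 20 h to a DNA barcode microarray. The binding value is a Z-score computed from the library mean and standard deviation, after subtraction of beads without compound and averaging of barcoded replicate probes with the highest and lowest excluded.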

[2] = tested on: TO-N3 (biotin conjugate)
How it was run: as §1

[3] = tested on: TO-3-N3-2 (biotin conjugate)
How it was run: as §1

[4] = tested on: TO-N3-2 (biotin conjugate)
How it was run: as §1

Sequence	pull-down binding Z-score [1]	pull-down binding Z-score [2]	pull-down binding Z-score [3]	pull-down binding Z-score [4]
UAAACACGCUUGUUAAACAACUUAGCUCCAAUUUUGGUGCAAUUUCAAGUGUUUUA [SHAPE_invitro_SARS-CoV-2_Motif_443]	-0.82	-0.925	-0.221	-0.333
UAAACCACCCAUUAGUUUUCCAUUGUGUGCUAAUGGACAAGUUUUUGGUUUA [SHAPE_invivo_SARS-CoV-2_Motif_310]	-0.757	-1	-0.357	-1.35
UAAAGAACUUUAAGUCAGUUCUUUA	-0.827	-1.25	-0.501	-1.19
UAAAGCCACGUAUAAACCAAAUACCUGGUGUAUACGUUGUCUUUG	-0.523	-0.75	-0.279	-0.691
UAAAGUACUUAAUGAGAAGUGCUCUGCCUAUACAGUUGAACUCGGUACAGAAGUAAAUGAGUUCGCCUGUGUUGUGGCAGAUGCUGUCAUAAAAACUUUG [DMSMaPseq_invitro_SARS-CoV-2_Motif_52]	-0.419	-0.501	0.122	0.722
UAAAUAAGGGACACUUUGAUGGACAACAGGGUGAAGUACCAGUUUCUAUCAUUAAUAACACUGUUUACACAAAAGUUGAUGGUGUUGAUGUAGAAUUGUUUG	-0.266	-0.00789	0.0932	-0.111
UAAAUUUUUGGCUUUGUGUGCUGACUCUAUCAUUAUUGGUGGAGCUAAACUUAAAGCCUUGAAUUUA	-0.848	-0.962	0.0426	-1.2
UAACACCAGGAACAAAUACUUCUAACCAGGUUGCUGUUCUUUAUCAGGGUGUUA [SHAPE_invivo_SARS-CoV-2_Motif_440]	-0.383	-0.633	-0.22	-1.19
UAACAGUUACACCGGAAGCCAAUAUGGAUCAAGAAUCCUUUGGUGGUGCAUCGUGUUG	-0.833	-0.9	-0.365	-0.452
UAAGGAAGGAAGUUCUGUUGAAUUAAAACACUUCUUCUUUG [SHAPE_invitro_SARS-CoV-2_Motif_269]	-0.963	-1.1	-0.389	-0.905
UAAGGAGAGUGUUCAGACAUUCUUUAAGCUUG [DMSMaPseq_invitro_SARS-CoV-2_Motif_43]	-0.408	-0.507	-0.244	-0.426
UAAUAACGCUACUAAUGUUGUUAUUA	-0.595	-1.02	-0.411	-1.73
UAAUCAGACAAGGAACUGAUUA	-0.426	-0.836	-0.537	-0.943
UAAUGGUUUAACUUCUAUUA [DMSMaPseq_invitro_SARS-CoV-2_Motif_100]	-0.945	-1.33	-0.395	-1.37
UAAUUAUAAAUUACCAGAUGAUUUUACAGGCUGCGUUAUAGCUUGGAAUUCUAACAAUCUUGAUUCUAAGGUUGGUGGUAAUUAUAAUUA	-0.486	-0.838	0.371	-0.713
UAAUUCUUGGCUUAUGUGGUUAAUAAUUA [DMSMaPseq_invitro_SARS-CoV-2_Motif_139]	-0.0604	-0.293	-0.0756	-0.709
UACAAACUUGUG [DMSMaPseq_invitro_SARS-CoV-2_Motif_398]	-0.625	-1.02	-0.609	-1.04
UACAAUUUGCCUAUGCCAACAGGAAUAGGUUUUUGUA	0.38	-0.122	-0.176	-1.3
UACAUGUGUUGGUAGCGAUAAUGUUACUGACUUUAAUGCAAUUGCAACAUGUG [DMSMaPseq_invitro_SARS-CoV-2_Multi_49_ComplexLevel_1]	-0.662	-0.826	0.0202	-0.909
UACCAGACUAUAACACAUAUAAAAAUACGUGUGAUGGUA [DMSMaPseq_invitro_SARS-CoV-2_Motif_221]	-0.929	-1.03	-0.385	-1.24
UACCAGCUGUACUCAACUCAAUUGAGUACAGACACUGGUG [DMSMaPseq_invitro_SARS-CoV-2_Motif_468]	-0.751	-1.16	-0.473	-1.06

Sequence	pull-down binding Z-score [1]	pull-down binding Z-score [2]	pull-down binding Z-score [3]	pull-down binding Z-score [4]
UACCAUUUAAUGAUGGUG	0.115	-0.0588	-0.21	-1.03
UACCGAUGCCAUAGAGGUG [IAV_invivo_PB1_2_Motif_30+IAV_invivo_PB1_2_Motif_30]	-0.183	-0.0495	-0.0397	0.166
UACCUUUUGCUAUGGGUA	-0.317	-0.582	-0.454	-1.26
UACUAAUAUGUUUACACCACUAAUUCAACCUAUUGGUGCUUUGGACAUAUCAGCAUCUAUAGUAGCUGGUGGUAUUGUAGCUAUCGUAGUA [SHAPE_invivo_SARS-CoV-2_Motif_188]	0.0327	0.303	0.253	0.354
UACUGGUUCUAUACCUUGUA [SARS-CoV-2-Conserved-Structured-4_Interval-7011-7130_Motif_3]	0.217	-0.0242	-0.095	-0.722
UACUUUACUCAGAGUA [SHAPE_invitro_SARS-CoV-2_Motif_368]	-1.06	-1.58	-0.589	-1.64
UAGAAUAGACGGUGACAUGGUACCACAUAUAUCACGUCAACGUCUUACUA [SHAPE_invivo_SARS-CoV-2_Motif_261]	-0.605	-0.562	-0.164	-0.953
UAGACAAUUCUAGUCUUACUAUUAAGAAACCUAAUGAAUUAUCUA [SHAPE_invivo_SARS-CoV-2_Motif_135]	-1.02	-1.27	-0.287	-1.41
UAGAGAAAACAACAGAGUUGUUAUUUCUAGUGAUGUUCUUGUUAACAACUAAACGAACAAUGUUUGUUUUUCUUGUUUUAUUGCCACUAGUCUCUA [SHAPE_invitro_SARS-CoV-2_Multi_58_ComplexLevel_1]	-0.989	-0.976	-0.215	-0.78
UAGAGGUACAACAGUACUUUUA	-0.813	-1.12	-0.423	-1.28
UAGAGUGCUAUCUA [SHAPE_invitro_SARS-CoV-2_Motif_352]	-0.809	-0.957	-0.553	-0.86
UAGAUGCUGUAAAUUUACUUACUAAUAUGUUUACACCACUAAUUCAACCUAUUGGUGCUUUGGACAUAUCAGCAUCUA [DMSMaPseq_invitro_SARS-CoV-2_Multi_30_ComplexLevel_1]	0.39	0.0803	-0.0621	-0.105
UAGCGUGCCUUUGUAAGCACAAGCUG	0.532	0.57	0.0842	0.342
UAGCUGGUUUUGCUA [SHAPE_invivo_SARS-CoV-2_Motif_257]	0.71	0.281	0.105	-0.612
UAGCUGUACCCUAUAAUAUGAGAGUUAUACAUUUUGGUGCUGGUUCUGAUAAAGGAGUUGCACCAGGUACAGCUG	-0.371	-0.515	-0.121	-0.588
UAGCUUGUUUUGUGCUUGCUG [SHAPE_invivo_SARS-CoV-2_Motif_507]	0.134	-0.0778	-0.546	-0.699
UAGGCACGGCACUUGUGAAAGAUCAGAAGCUGGUGUUUG	-0.0752	0.0405	-0.246	0.362
UAGGUGUUUUAAUGUCUAAUUUAGGCAUGCCUUCUUACUGUACUGGUUACAGAGAAGGCUAUUUGAACUCUA	-0.861	-0.806	-0.358	-0.982
UAGGUGUUUUAAUGUCUAAUUUAGGCAUGCCUUCUUACUGUACUGGUUACAGAGAAGGCUAUUUGAACUCUACUAAUGUCACUAUUGCAACCUA	-0.221	-0.0965	0.0583	-0.12
UAGGUUUUUCUACAGGUGUUAACCUA [SHAPE_invitro_SARS-CoV-2_Motif_336]	-0.603	-0.981	-0.426	-0.856
UAGUACAACAGGAGUCACCUUUUGUUAUGAUGUCAGCACCACCUGCUCAGUAUGAACUUAAGCAUGGUACAUUUACUUGUGCUA	-0.521	-0.168	-0.518	-0.0314

Sequence	pull-down binding Z-score [1]	pull-down binding Z-score [2]	pull-down binding Z-score [3]	pull-down binding Z-score [4]
UAGUACAUUUAUUAGUGAUGAAGUUGCGAGAGACUUGUCACUACAGUUUAAAAGACCAAUAAAUCCUACUG [SHAPE_invivo_SARS-CoV-2_Multi_21_ComplexLevel_1]	0.561	0.716	0.312	0.172
UAGUAGCUGGUGGUAUUGUAGCUAUCGUAGUAACAUGCCUUGCCUACUA [DMSMaPseq_invitro_SARS-CoV-2_Motif_172]	-0.611	-0.871	-0.39	-1.01
UAGUCCUGUUGCACUACGACAGAUGUCUUGUGCUGCCGGUACUA [DMSMaPseq_invitro_SARS-CoV-2_Motif_226]	-0.727	-0.821	-0.381	-0.478
UAGUGAUGAAGUUGCGAGAGACUUGUCACUA	-0.736	-0.688	-0.441	-0.661
UAGUGCAAAGAAUAGAGCUCGCACCGUAGCUGGUGUCUCUAUCUGUAGUACUA	-0.167	-0.0718	0.188	0.18
UAGUGCUAUGCAGACAAUGCUUUUCACUA	-0.863	-1.14	-0.341	-0.838
UAGUGUUACCACAGAAAUUCUACCAGUGUCUAUGACCAAGACAUCAGUAGAUUGUACAAUGUACAUUUGUGGUGAUUCAACUG [DMSMaPseq_invitro_SARS-CoV-2_Multi_72_ComplexLevel_1]	0.214	0.228	0.267	-0.417
UAGUUACACGGUGUUUAAACCGUGUUUGUACUA [SHAPE_invivo_SARS-CoV-2_Motif_139]	-0.83	-1.15	-0.496	-1.11
UAGUUUUAAGGAAUUA	-0.826	-1.1	-0.519	-1.56
UAUAAAGUUUAUUAUGGUAAUGCUUUAGAUCAAGCCAUUUCCAUGUGGGCUCUUAUA	-0.704	-0.806	-0.133	-0.695
UAUAACAAUACUAGAUGGAAUUUCACAGUAUUCACUGAGACUCAUUGAUGCUAUGAUGUUCACAUCUGAUUUGGCUACUAACAAUCUAGUUGUA	-0.682	-0.688	-0.178	-1.1
UAUAAUAUGAGAGUUAUA	-0.11	-0.233	-0.355	-0.882
UAUAUGCCUUAUUUCUUUACUUUAUUGCUACAAUUGUGUACUUUUACUAGAAGUACAAAUUCUAGAAUUAAAGCAUCUA [DMSMaPseq_invitro_SARS-CoV-2_Motif_128]	-0.237	-0.348	0.0402	-0.67
UAUCCAAACGCAAGCUUCGAUAAUUUUAAGUUUGUAUGUGAUA [DMSMaPseq_invitro_SARS-CoV-2_Motif_115]	0.127	-0.225	0.145	-0.609
UAUGAGGUUUAGAAGAGCUUUUGGUGAAUACAGUCAUGUAGUUGCCUUUAAUACUUUACUAUUCCUUAUG	-0.502	-0.62	-0.231	-0.84
UAUGUCUGAAGCAAAAUGUUGGACUGAGACUGACCUUACUAAAGGACCUCAUGAAUUUUGCUCUCAACAUA	0.0274	0.246	-0.402	-0.671
UAUUACAGAUCUUUACCAGGAGUUUUCUGUGGUG	-0.624	-0.72	-0.388	-0.779
UAUUAUUGCUAUGUCUGCUUUUGCAAUGAUG	-1.09	-1.29	-0.373	-1.18
UAUUGAAAUCAAUA	-0.553	-0.987	-0.77	-1.72
UAUUUCAUAACAGAUGCGCAAACAGGUUCAUCUAAGUGUGUGUGUUCUGUUAUUGAUUUA	-1.06	-1.16	-0.188	-0.209
UAUUUGCCUAUAGAUA	0.0252	-0.128	-0.192	-0.821
